Experimental data reported in patent publication US20210252150A1 (VANDERBILT UNIVERSITY, published 2021).
Where two headings read alike, the source gives them in different places.

Legend:
[1] = target: T1, HA of A/turkey/Wisconsin/1/1966 (H9N2) (influenza A virus (H9N2), UniProt P03457 19-526); assay: ELISA, recombinant HA
[2] = target: T2, HA of A/Singapore/1/1957 (H2) (influenza A virus (H2), UniProt Q67333 16-525); assay: ELISA, recombinant HA
[3] = target: T2, HA of A/Singapore/1/1957 (H2); assay: ELISA
[4] = target: T2, HA of A/Singapore/1/1957 (H2); assay: ELISA; remark: listed apart in the source
[5] = target: T1, HA of A/turkey/Wisconsin/1/1966 (H9N2); assay: ELISA, recombinant HA; remark: listed apart in the source
[6] = target: T2, HA of A/Singapore/1/1957 (H2); assay: ELISA; remark: listed apart in the source
[7] = target: T2, HA of A/Singapore/1/1957 (H2); assay: ELISA; remark: listed apart in the source
[8] = target: T2, HA of A/Singapore/1/1957 (H2); assay: ELISA, recombinant HA; remark: listed apart in the source
[9] = target: T3, HA of A/South Carolina/1/1918 (H1N1) (influenza A virus (H1N1), UniProt Q9WFX3 18-529); assay: BLI, 1:1 global fit; Table S2 of the text prints 46 for this strain
[10] = target: T3, HA of A/South Carolina/1/1918 (H1N1); assay: BLI, Fab on immobilized biotinylated HA
[11] = target: HA of A/Victoria/3/1975 (H3N2) (influenza A virus (H3N2), UniProt P03435 17-531); assay: BLI, Fab on immobilized biotinylated HA
[12] = target: T3, HA of A/South Carolina/1/1918 (H1N1); assay: BLI, Fab on immobilized biotinylated HA; remark: listed apart in the source
[13] = target: T4, HA of A/Hong Kong/1/1968 (H3N2) (influenza A virus (H3N2), UniProt Q91MA7 17-530); assay: ELISA, recombinant HA
[14] = target: T4, HA of A/Hong Kong/1/1968 (H3N2); assay: ELISA, recombinant HA; remark: listed apart in the source
[15] = target: T4, HA of A/Hong Kong/1/1968 (H3N2); assay: BLI, Fab on immobilized biotinylated HA
[16] = target: HA of A/Perth/16/2009 (H3N2) (influenza A virus (H3N2), UniProt O11283 17-530); assay: BLI, Fab on immobilized biotinylated HA
[17] = target: T4, HA of A/Hong Kong/1/1968 (H3N2); assay: BLI, Fab on immobilized biotinylated HA; remark: listed apart in the source
[18] = target: T4, HA of A/Hong Kong/1/1968 (H3N2); assay: Octet (BLI) with HA
[19] = target: T3, HA of A/South Carolina/1/1918 (H1N1); assay: Octet (BLI) with HA
[20] = target: T1, HA of A/turkey/Wisconsin/1/1966 (H9N2); assay: Octet (BLI) with HA
[21] = target: HA of A/Japan/305/1957 (H2N2) (influenza A virus (H2N2), UniProt P03451 16-525); assay: Octet (BLI) with HA
[22] = target: T4, HA of A/Hong Kong/1/1968 (H3N2); assay: ELISA (highest dilution tested 1/50,000)
[23] = target: T3, HA of A/South Carolina/1/1918 (H1N1); assay: ELISA (highest dilution tested 1/50,000)

T3 sequence (Q9WFX3 18-529): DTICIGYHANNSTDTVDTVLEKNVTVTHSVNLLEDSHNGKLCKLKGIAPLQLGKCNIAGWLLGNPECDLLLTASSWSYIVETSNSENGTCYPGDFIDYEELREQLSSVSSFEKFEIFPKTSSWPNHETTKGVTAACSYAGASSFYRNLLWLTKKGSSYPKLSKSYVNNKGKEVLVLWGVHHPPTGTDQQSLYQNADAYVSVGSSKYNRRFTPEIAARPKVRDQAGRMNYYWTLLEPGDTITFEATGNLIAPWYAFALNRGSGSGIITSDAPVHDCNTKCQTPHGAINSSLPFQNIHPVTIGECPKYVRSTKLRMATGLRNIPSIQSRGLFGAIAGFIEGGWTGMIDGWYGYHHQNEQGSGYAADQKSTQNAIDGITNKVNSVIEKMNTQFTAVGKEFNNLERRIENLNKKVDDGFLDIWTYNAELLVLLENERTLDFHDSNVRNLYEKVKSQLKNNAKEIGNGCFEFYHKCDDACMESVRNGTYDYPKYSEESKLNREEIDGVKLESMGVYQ
T1 sequence (P03457 19-526 limits assumed): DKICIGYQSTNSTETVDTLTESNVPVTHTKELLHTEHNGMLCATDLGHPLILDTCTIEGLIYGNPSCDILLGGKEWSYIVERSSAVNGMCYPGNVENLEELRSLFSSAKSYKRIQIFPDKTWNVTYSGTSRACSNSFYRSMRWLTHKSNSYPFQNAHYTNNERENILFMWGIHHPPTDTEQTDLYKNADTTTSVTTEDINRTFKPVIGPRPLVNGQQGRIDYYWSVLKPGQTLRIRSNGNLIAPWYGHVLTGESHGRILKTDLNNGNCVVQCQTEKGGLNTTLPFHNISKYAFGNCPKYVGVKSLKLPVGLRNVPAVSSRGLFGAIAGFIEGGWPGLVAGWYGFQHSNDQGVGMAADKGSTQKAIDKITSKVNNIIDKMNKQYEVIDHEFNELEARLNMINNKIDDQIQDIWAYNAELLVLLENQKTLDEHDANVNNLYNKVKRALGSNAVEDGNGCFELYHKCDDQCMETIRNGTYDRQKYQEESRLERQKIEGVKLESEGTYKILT
Chain of HA of A/Victoria/3/1975 (H3N2) (P03435 17-531 limits assumed): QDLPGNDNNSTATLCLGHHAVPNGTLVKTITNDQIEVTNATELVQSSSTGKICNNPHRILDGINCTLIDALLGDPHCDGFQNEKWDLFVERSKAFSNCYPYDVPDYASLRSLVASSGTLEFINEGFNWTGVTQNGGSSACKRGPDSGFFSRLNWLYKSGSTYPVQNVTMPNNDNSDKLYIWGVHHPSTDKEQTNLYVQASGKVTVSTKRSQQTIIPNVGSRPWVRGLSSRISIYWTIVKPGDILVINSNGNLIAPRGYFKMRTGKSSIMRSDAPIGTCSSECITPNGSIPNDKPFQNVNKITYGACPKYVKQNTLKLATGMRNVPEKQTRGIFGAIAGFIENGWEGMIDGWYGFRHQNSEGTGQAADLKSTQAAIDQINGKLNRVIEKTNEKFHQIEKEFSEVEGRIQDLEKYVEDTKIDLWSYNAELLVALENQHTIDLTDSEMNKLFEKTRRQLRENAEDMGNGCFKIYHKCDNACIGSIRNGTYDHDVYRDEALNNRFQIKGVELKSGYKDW

B1: FluA-20 (hybridoma-produced IgG) (antibody, V domains shown)
VH: QVQLQESGPGLVKPSETLSLTCSVSGVSVTSDIYYWTWIRQPPGKGLEWIGYIFYNGDTNYNPSLKSRVTMSIDTSKNEFSLRLTSVTAADTAVYFCARGTEDLGYCSSGSCPNHWGQGTLVTVSS
VL: DIQMTQSPSSLSASIGDRVTITCRPSQNIRSFLNWFQHKPGKAPKLLIYAASNLQSGVPSRFSGSGSGTEFTLTIRSLQPEDFATYYCQQSYNTPPTFGQGTKVEIK
- EC50 [1]: 0.022 µg/mL
- EC50 [2]: 0.009 µg/mL
- EC50 [3]: 0.007 µg/mL
- EC50 [4]: 0.18 µg/mL
- EC50 [5]: 0.063 µg/mL

B2: rFluA-20 (recombinant FluA-20 IgG) (antibody, V domains shown)
VH: QVQLQESGPGLVKPSETLSLTCSVSGVSVTSDIYYWTWIRQPPGKGLEWIGYIFYNGDTNYNPSLKSRVTMSIDTSKNEFSLRLTSVTAADTAVYFCARGTEDLGYCSSGSCPNHWGQGTLVTVSS
VL: DIQMTQSPSSLSASIGDRVTITCRPSQNIRSFLNWFQHKPGKAPKLLIYAASNLQSGVPSRFSGSGSGTEFTLTIRSLQPEDFATYYCQQSYNTPPTFGQGTKVEIK
- EC50 [1]: 0.016 µg/mL
- EC50 [6]: 0.011 µg/mL
- EC50 [7]: 0.011 µg/mL
- EC50 [5]: 0.193 µg/mL
- EC50 [8]: 0.178 µg/mL

B3: FluA-20 Fab (Fab, V domains shown)
VH: QVQLQESGPGLVKPSETLSLTCSVSGVSVTSDIYYWTWIRQPPGKGLEWIGYIFYNGDTNYNPSLKSRVTMSIDTSKNEFSLRLTSVTAADTAVYFCARGTEDLGYCSSGSCPNHWGQGTLVTVSS
VL: DIQMTQSPSSLSASIGDRVTITCRPSQNIRSFLNWFQHKPGKAPKLLIYAASNLQSGVPSRFSGSGSGTEFTLTIRSLQPEDFATYYCQQSYNTPPTFGQGTKVEIK
- Kd [9]: ~48 nM
- Kd [10]: 46 nM
- Kd [11]: 3460 nM
- Kd [12]: 46 nM

B4: UCA (antibody, V domains shown)
VH: QVQLQESGPGLVKPSETLSLTCTVSGGSVSSGSYYWSWIRQPPGKGLEWIGYIYYSGSTNYNPSLKSRVTISVDTSKNQFSLKLSSVTAADTAVYYCARGTEDLGYCSGGSCPNHWGQGTLVTV
VL: not shown
- EC50 [13]: 0.021 µg/mL
- EC50 [2]: 0.028 µg/mL
- EC50 [14]: 0.054 µg/mL
- EC50 [5]: 0.359 µg/mL
- EC50 [8]: 0.07 µg/mL

B5: FluA-20 UCA Fab (unmutated common ancestor of FluA-20) (Fab, V domains shown)
VH: QVQLQESGPGLVKPSETLSLTCTVSGGSVSSGSYYWSWIRQPPGKGLEWIGYIYYSGSTNYNPSLKSRVTISVDTSKNQFSLKLSSVTAADTAVYYCARGTEDLGYCSGGSCPNHWGQGTLVTV
VL: not shown
- Kd [15]: 486 nM
- Kd [10]: 937 nM
- binding result [11]: no binding (tested: 2 µM)
- binding result [16]: no binding (tested: 2 µM)
- Kd [17]: 486 nM
- Kd [12]: 937 nM

B6: H5.31 (antibody, V domains shown)
VH: EVQLVQSGGGLVQPGGSLRLSCEASRFTSSSYWITWVRQAPGKGLEWVANIKQDGSEKYFVDSVKGRFTISRDNASNSLYLQMSSLRAEDTAVYYCARGFLERLLLGRQGAYYYGMDVWGQGTTVTVSS
VL: DIQMTQSPSSLSASVGDRVTMTCRASQSISSSLNWYQQKPGKAPKLLIYAASNLQSGVPSRFSGSGSGTDFTLTISSLQPEDFATYYCQQSYTMPPELTFGGGTKVQIK
- Kd [18]: 5.4 nM
- Kd [19]: 0.17 nM
- Kd [20]: 17 nM
- Kd [21]: 0.13 nM
- EC50 [22]: 0.024 µg/mL
- EC50 [23]: 0.031 µg/mL

B7: H5.28 (antibody, V domains shown)
VH: EVQLVESGGGLVQPGGSLRLSCAASGFTFSTYWMTWVRQAPGKGLEWVANINQDGGEKYFVDSVKGRFTISRDNAKNSLFLQMNTLRAEDTAVYYCARGFLERLLLGRQGAYYYGMDVWGQGTTVTVSS
VL: DIQMTQSPSSLSASVGDRVSMTCRASQIISSSLNWYQQKPGKAPKLLIYAASNLQSGVPSRFSGSGSGTDFTLTISSLQPEDFATYYCQQSYSTPPELTFGGGTKVEIK
- Kd [18]: 75 nM
- Kd [19]: 0.11 nM
- Kd [20]: 65 nM
- Kd [21]: 0.19 nM
- EC50 [22]: 16 µg/mL
- EC50 [23]: 0.081 µg/mL
